A word on the Tm: it is the temperature at which the thermal transition is half complete.

B1: Regulatory protein rop, P03051 (parent)
chain: MTKQEKTALNMARFIRSQTLTLLEKLNELDADEQADICESLHDHADELYRSCLARFGDDGENL

Variants of B1 are the subject of the data set. The following applies: Escherichia coli, pH 7, Thermal, CD, Sodium phosphate 10 mM, NaCl 350 mM, structure 1ROP, whole UniProt chain shown; for ddG of mutation (higher = less stable): 69 °C.

As for MTKQEKTALNMARFIRSQTLTLLEKLNELWADEQADICESLHDHADELYRSCLARFGDDGENL [D30W], the “ddG of mutation (higher = less stable)” value stood at 0.4 kcal/mol; the Tm was found to be 65.9 °C; the “change of melting temperature, mutant - wild type (higher = more stable)” value (shortened to “change of melting temperature, mutant”) is -2.8 °C.
The like results for MTKQEKTALNMARFIRSQTLTLLEKLNELEADEQADICESLHDHADELYRSCLARFGDDGENL [D30E] were, in that order, -1 kcal/mol, 74.9 °C and 6.2 °C.
For MTKQEKTALNMARFIRSQTLTLLEKLNELGADEQADICESLHDHADELYRSCLARFGDDGENL [D30G], the “ddG of mutation (higher = less stable)” value was -2 kcal/mol; the melting temperature (Tm) was determined as 80.3 °C; the “change of melting temperature, mutant” value came out at 11.6 °C.
The like results for MTKQEKTALNMARFIRSQTLTLLEKLNELHADEQADICESLHDHADELYRSCLARFGDDGENL [D30H] were, in that order, -0.9 kcal/mol, 74.5 °C and 5.8 °C.
The like results for MTKQEKTALNMARFIRSQTLTLLEKLNELIADEQADICESLHDHADELYRSCLARFGDDGENL [D30I] were, in that order, 0.8 kcal/mol, 63.4 °C and -5.3 °C.
For MTKQEKTALNMARFIRSQTLTLLEKLNELNADEQADICESLHDHADELYRSCLARFGDDGENL [D30N] the same measures were -0.8 kcal/mol, 73.8 °C and 5.1 °C.
With MTKQEKTALNMARFIRSQTLTLLEKLNELAADEQADICESLHDHADELYRSCLARFGDDGENL [D30A], the “ddG of mutation (higher = less stable)” value was -0.3 kcal/mol; the Tm worked out at 71.2 °C; the “change of melting temperature, mutant” value was 2.5 °C.
The like results for MTKQEKTALNMARFIRSQTLTLLEKLNELKADEQADICESLHDHADELYRSCLARFGDDGENL [D30K] were, in that order, -0.9 kcal/mol, 74.6 °C and 5.9 °C.
As to MTKQEKTALNMARFIRSQTLTLLEKLNELPADEQADICESLHDHADELYRSCLARFGDDGENL [D30P], the “ddG of mutation (higher = less stable)” value is 1.6 kcal/mol; the Tm is 58.9 °C; the “change of melting temperature, mutant” value was -9.8 °C.
For MTKQEKTALNMARFIRSQTLTLLEKLNELYADEQADICESLHDHADELYRSCLARFGDDGENL [D30Y] the same measures were -0.2 kcal/mol, 70.4 °C and 1.7 °C.
For MTKQEKTALNMARFIRSQTLTLLEKLNELVADEQADICESLHDHADELYRSCLARFGDDGENL [D30V] the same measures were 0.4 kcal/mol, 66.6 °C and -2.1 °C.
For MTKQEKTALNMARFIRSQTLTLLEKLNELFADEQADICESLHDHADELYRSCLARFGDDGENL [D30F] the same measures were 0.1 kcal/mol, 68.3 °C and -0.4 °C.
For the variant MTKQEKTALNMARFIRSQTLTLLEKLNELTADEQADICESLHDHADELYRSCLARFGDDGENL [D30T], the “ddG of mutation (higher = less stable)” value was determined as 0.4 kcal/mol; the Tm is 66.6 °C; the “change of melting temperature, mutant” value was -2.1 °C.
The like results for MTKQEKTALNMARFIRSQTLTLLEKLNELLADEQADICESLHDHADELYRSCLARFGDDGENL [D30L] were, in that order, 0.1 kcal/mol, 68.4 °C and -0.3 °C.
For MTKQEKTALNMARFIRSQTLTLLEKLNELQADEQADICESLHDHADELYRSCLARFGDDGENL [D30Q] the same measures were -1.8 kcal/mol, 79.1 °C and 10.4 °C.
The like results for MTKQEKTALNMARFIRSQTLTLLEKLNELCADEQADICESLHDHADELYRSCLARFGDDGENL [D30C] were, in that order, -0.8 kcal/mol, 74 °C and 5.3 °C.
Regarding MTKQEKTALNMARFIRSQTLTLLEKLNELMADEQADICESLHDHADELYRSCLARFGDDGENL [D30M], the “ddG of mutation (higher = less stable)” value is -0.6 kcal/mol; the Tm worked out at 72.7 °C; the “change of melting temperature, mutant” value was 4 °C.
With MTKQEKTALNMARFIRSQTLTLLEKLNELRADEQADICESLHDHADELYRSCLARFGDDGENL [D30R], the “ddG of mutation (higher = less stable)” value is -0.8 kcal/mol.
In the case of MTKQEKTALNMARFIRSQTLTLLEKLNELSADEQADICESLHDHADELYRSCLARFGDDGENL [D30S], the “ddG of mutation (higher = less stable)” value was -1 kcal/mol; the Tm came to 74.7 °C; the “change of melting temperature, mutant” value was 6 °C.

The record behind these values is FireProtDB (doi:10.1038/nsb0196-54).
